Assay results taken from the Human Domainome abundance scans (Beltran et al. 2025).

B1: Cullin-9, residues 2234 to 2275; numbered along this chain, Q8IWT3 (parent)
chain: KRCPSCQAPIEKNEGCLHMTCAKCNHGFCWRCLKSWKPNHKD
B2: POU domain, class 4, transcription factor 3, residues 185 to 256; numbered along this chain, Q15319 (parent)
chain: RELEAFAERFKQRRIKLGVTQADVGAALANLKIPGVGSLSQSTICRFESLTLSHNNMIALKPVLQAWLEEAE

Variants of: B1
Experiment: abundance fitness (aPCA) (normalised: wild type 0, dead -1); higher = more abundant; growth selection in yeast, the domain comes from the species named
Settings: Homo sapiens

Abundance fitness of substitutions, site by site:
N39: V -0.095 | D 0.244
L33: T -0.29 | E 0.02 | H -0.321 | R -0.418 | M -0.096 | D -0.235 | W -0.48 | K -0.184 | C -0.412 | P -0.464 | V -0.414 | I -0.501 | F -0.451 | Q -0.125 | N -0.432 | Y -0.512 | S -0.623
K41: P 0.318 | V 0.255 | L -0.295 | M -0.373 | H 0.256 | S -0.038 | T -0.277 | R -0.128 | N -0.132 | W -0.646 | C 0.578 | A 0.047 | E 0.281
K37: R -0.156 | E 0.219 | I -0.039 | T 0.117 | Y -0.059 | G 0.125 | L -0.143 | M -0.261 | S 0.234 | C 0.057 | Q 0.121 | F -0.193 | W -0.168 | P -0.056 | D 0.323 | V 0.078
C29: Y -0.847 | E -0.432 | Q -0.563 | V -0.969 | M -0.969 | K -0.632 | A -0.76 | S -0.749 | W -1.17 | G -0.737 | H -0.532 | N -0.761 | F -1.53 | R -0.888 | L -0.696
W30: S -0.101 | L -0.156 | M -0.223 | I -0.258 | Q -0.05 | C -1.09 | H -0.069 | V -0.056 | D 0.019 | E 0.016 | F -0.162 | K -0.366 | G 0.162 | P 0.134
P38: F 0.042 | S -0.26 | K -0.379 | Q -0.163 | E 0.184 | A -0.114 | R -0.383 | C -0.695 | H -0.867 | L -0.178 | T -0.204 | M -0.364 | V -0.212 | D -0.553
K23: M -0.323 | V -0.293 | H -0.223 | S -0.174 | I -0.437 | P -0.695 | Q -0.454 | A -0.102 | E -0.209 | F 0.02 | G -0.262 | L -0.325 | R -0.015 | D -0.239 | T -0.115 | N -0.184
G27: I -0.083 | M -0.264 | P -0.129 | Q 0.439 | C 0.036 | D 0.193 | L -0.457 | K 0.075 | T 0.326 | A 0.194 | H 0.379 | E 0.708 | W -0.005 | S 0.256 | R 0.159 | Y -0.425
N25: C 0.126 | Q 0.082 | I -0.121 | R -0.25 | M -0.06 | V -0.265 | E -0.045 | P -0.382 | G 0.208 | F -0.242 | K -0.092 | W -0.44 | A -0.127 | D 0.087 | S 0.03 | T -0.106
C24: G -0.268 | T -0.735 | F -0.534 | H -0.382 | E -0.129 | R -0.594 | M -0.574 | S -0.384 | K -0.379 | D -0.045 | P -0.249 | W -0.784 | L -0.454 | A -0.45

Variants of: B2
Experiment: as above
Settings: Homo sapiens

Abundance fitness of substitutions, site by site:
E2: D 0.075
R1: L -0.125 | K -0.226 | D -0.419 | A -0.282 | C -0.229 | W -0.164 | S -0.109 | F -0.142 | T -0.133 | N -0.153 | G 0.002 | E -0.093 | M -0.08
